Data taken from the supplement of paper PMC10126150.
± gives the standard deviation of the averaged measurements.

System: ATP
Experiment: switch fluorescence ratio, 500 uM ATP over buffer (Cy3 cluster intensity, sum of 5 cycles each) (fold (ratio)); higher = stronger signal-on switching upon ATP binding; sequences stand for … in TCGTCGGCAGCGTCAGATGTGTATAAGAGACAGTTTTTTTTTTTTTTTTTTTTTTTTT…TC
Conditions: aptamer strand: ATP DNA aptamer (quencher-CACCTGGGGGAGTATTGCGGAGGAAGG + anchor), 100 nM annealed; ATP concentration: 500 uM
Procedure, shortened: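 The quencher-labelled ATP aptamer, at 100 nM, was annealed to Cy3-labelled switching-strand clusters on a modified Illumina MiSeq flow-cell. The clusters were imaged in selection buffer, then after 15 min with 500 uM ATP at 22 °C, and this buffer/ATP cycle ran five times with NaOH stripping and re-annealing between runs. Per-cluster fluorescence ratios, summed target-cycle over summed buffer-cycle Cy3 intensity, were averaged per switch-domain sequence. Clusters outside 100-1000 RFU were excluded.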
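Note: ATP exposure 15 min at 22 °C before imaging.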

Sequence	switch fluorescence ratio
GATTGCAAGG	1.02 ± 0.02
CCGGGGTACA	1.17 ± 0.17
CAGGGGATTA	1 ± 0.045
CGGGGAGTTT	0.978 ± 0.05
TCGTATGCGT	1.11 ± 0.25
GTGGTTAGAA	0.9841 ± 0.0025
AGACTTATTT	1.01 ± 0.013
TAGAAAAGGC	1.15 ± 0.21
CTAGGGGGTC	0.993 ± 0.046
GCAATTTCAG	1.05 ± 0.021
TATTTTAATT	0.991 ± 0.017
TGTTTTATCG	0.999 ± 0.028
GAGAGAGTGG	0.976 ± 0.032
AAGGTTTCGT	1 ± 0.024
TAAAGAAAAG	0.988 ± 0.011
GTTGTTTGCG	0.953 ± 0.023
ATGGATTGTG	0.983 ± 0.011
GGGGGTAATG	0.974 ± 0.035
GCCAATAGTT	1.046 ± 0.0073
GAAGAGATGT	1.01 ± 0.021
ATAGTCCTCC	1.2 ± 0.0043
AATCATGCGA	0.9964 ± 0.0078
GGGATTCAAC	1.018 ± 0.0085
TCCTTAATTT	1.02 ± 0.055
GTGAGGCCGC	1.0626 ± 0.001
TGGTTTTATA	0.969 ± 0.02

Sequence	switch fluorescence ratio
GGCTTTGGAT	0.977 ± 0.018
CTTGCGGGGC	1.03 ± 0.051
AAATCGCCTT	1.05 ± 0.02
CGTGACAGGG	1.04 ± 0.058
GTTACTGGAA	1.04 ± 0.02
AGCGGAGTAT	0.998 ± 0.063
CCTTTTGTTA	0.989 ± 0.02
AGCCGCGCAG	1.035 ± 0.0056
CGGATGATAG	1 ± 0.059
TCGCAAAATA	2.47 ± 1.2
TGGTGGGGTC	1 ± 0.034
CCGGTAGGGA	1.01 ± 0.021
ACGGGTGAGC	1.09 ± 0.011
TTTTGGGGCG	1.04 ± 0.055
AATCAAACTA	1.05 ± 0.028
AATAGTGGTA	1 ± 0.029
TGGCTTTTAC	1.09 ± 0.056
GGTTTCGGCG	0.966 ± 0.04
GAGTGGGGGT	0.977 ± 0.032
CAGATTTTTA	1.01 ± 0.029
CGGGGTAATG	0.979 ± 0.012
TTACGGGTAG	1.02 ± 0.0088
GGTGTTAGGC	1.01 ± 0.032
GAGTGGATAG	0.996 ± 0.018
GCGGGTTAGT	1.13 ± 0.13
TAGAAGGGGT	0.969 ± 0.047

Sequence	switch fluorescence ratio
ATGGGGCTGT	0.979 ± 0.034
ACAGTTGGCC	1.02 ± 0.021
GGATAGAGCT	1 ± 0.034
GGGTAGTTGG	0.998 ± 0.082
TGCTGAATCT	0.996 ± 0.046
TAACAATCGC	1.06 ± 0.038
GTAGGGCGGG	0.979 ± 0.043
CAGGAGACGC	1.05 ± 0.036
TGCGGCGCTT	1.97 ± 1.3
GCCTGGGACC	0.996 ± 0.022
GCAGGAATTC	1.05 ± 0.042
TTTGGATATG	0.992 ± 0.037
ATGCGGGTTC	1.01 ± 0.012
GACTATTAGA	0.9918 ± 0.0057
ATTTGGTGTA	0.968 ± 0.0098
AAAGGAGGTC	1.05 ± 0.033
GGGTTACGAT	0.994 ± 0.021
TTGATATATT	0.981 ± 0.017
CCGACTAAAA	4.27 ± 0.41
CAGTGGCCTA	0.99094 ± 0.00045
GTTTAAGGTT	1.08 ± 0.2
CCAAGGGGTT	1.01 ± 0.03
GGGGCGGCAG	0.998 ± 0.013
AATTGGAGTG	0.998 ± 0.041
